Data as given in patent US20250121063A1, “COMPOSITIONS OF […] RESISTANCE TO P[…] RELATED METHODS OF USE” (priority 2023, published 2025).
“Also recorded” adds a separate entry of the source.

Tests used:
[1] = test system: B16-OVA melanoma; assay: Adoptive transfer of shRNA-transduced OT-1 cells into mice bearing B16-OVA melanoma; type: in vivo, mouse; details: compared with shFF or HBSS
Text: Referring to FIG. 1, this indicates a normal mouse CD8+ treated with a construct expressing: control short hairpin RNA (shFF) or short hairpin RNA against mouse PTGIR gene. OT-1 is an anti-OVA T cell receptor that recognizes ovalbumin epitope (OVA) antigen variant E1 ([…]) restricted by H2-Kb. Mouse T cells that constitutively express OT-1 (“OT-1 cells”) were transduced with a construct expressing short hairpin RNA against mouse Ptgir gene (“shPTGIR”) or control short hairpin RNA (“shFF”; against firefly luciferase).
At day 0, mice were inoculated with […] B16-OVA melanoma cells (these cells constitutively express the OVA protein and present OVA epitopes on cell surface MHC). On Day 7 mice received (i.v.) 1E6 adoptively transferred gene modified OT-1 cells or Hank's buffered saline solution (HBSS).
At day 0, mice inoculated with B16-OVA melanoma. On Day 7 mice received adoptively transferred, gene modified CD8+ cells on Day 7 or saline (HBSS).
Referring to FIG. 2, this example was performed in the same way as Example 2.

[2] = test system: LCMV (Lymphocytic choriomeningitis) clone 13; details: mouse, in vivo
[3] = test system: P14 CD8+CD45.2+ T-cells; type: cell-based, mouse

B1: shPTGIR (nucleic acid)
DNA: AGCACGAGAGGAUGAAGUUUACUAGUGAAGCCACAGAUGUAGUAAACUUCAUCCUCUCGUGCC
modifications: expressed or natural sequence
For B1, the tumor growth ([1]; 1E6 gene modified OT-1 cells i.v. on Day 7 after B16-OVA inoculation) was “reduced tumor growth”, the survival ([1]; mice with B16-OVA melanoma, OT-1 cells transferred Day 7) was “increased survival” and the LAG-3 expression [2] was “lower LAG-3 expression”. The “absolute abundance of transduced CD45.2 T-cells” value [2] was “higher absolute abundance; also recorded: greater absolute numbers”, the “expansion of adoptively transferred cells (CD45.2+)” value [2] was “highly significant expansion” and the “percentage of Tim-3” value [2] was “lower percentage of Tim-3”. For the same molecule, the “phenotypic markers of exhaustion” value [2] was “reduced phenotypic markers of exhaustion” and the “IFNγ and TNFα response to antigen stimulation” value [3] was “capable of responding to antigen stimulation”.
